Results published in article PMC8000039, “Toxin-Activating Stapled Peptides Discovered by Structural Analysis Were Identified as New Therapeutic Candidates That Trigger Antibacterial Activity against Mycobacterium tuberculosis in the Mycobacterium smegmatis Model” (Microorganisms, 2021).

Assays:
[1] = tested on: VapBC26-expressing M. smegmatis mc2155 cells; format: cell-based, Mycobacterium smegmatis
[2] = CD spectroscopy, helicity calculated by CDNN software; format: physicochemical; conditions: 50 μM peptide, 10 mM potassium phosphate pH 7, 100 mM ammonium sulfate, 20 °C, average of three scans
Procedure: CD measurements were conducted at 20 °C using a Chirascan Plus spectropolarimeter (Applied Photophysics, Leatherhead, UK) in a cuvette with a 1 mm path length. The peptide samples were prepared at 50 μM in buffer consisting of 10 mM potassium phosphate (pH 7) and 100 mM ammonium sulfate. CD scans were taken from 180 nm to 260 nm at a speed of 100 nm/min with a 1 nm bandwidth. The helicity of each peptide was calculated by CDNN software.

[3] = tested on: VapBC26-harboring M. smegmatis; assay: Confocal microscopy of FITC-labeled peptides (cell permeability); format: cell-based, Mycobacterium smegmatis; conditions: FITC-labeled peptide 10 μM, 1 h, 37 °C, trypsin to degrade surface-bound and extracellular peptide, two independent experiments
Procedure: Confocal microscopy was used to assess the permeability of M. smegmatis using FITC-labeled peptides. Cultures of M. smegmatis grown in complete 7H9 medium to mid-logarithmic phase (OD600 0.3–0.5) were diluted 5-fold with Muller-Hinton broth (BD Biosciences, Franklin Lakes, NJ, USA). Diluted cell suspensions were aliquoted into Eppendorf tubes and treated with 10 μM peptide. After 1 h of incubation at 37 °C and 100 rpm, the cell suspensions were washed with PBS. If successful internalization of FITC-labeled peptides is achieved, then fluorescence will be detected in the images. Surface-bound peptides and extracellular peptides were degraded by trypsin, and thus remained fluorescence signals in the images indicate the indeed internalization of peptide. Images were acquired on a TCS8 confocal scope (Leica Microsystems, Wetzlar, Germany) with a 63× oil immersion objective.

VapC26 α4_54–65: linear α4-mimicking peptide of VapC26 (residues 54–65), from the authors' previous study (DAELAVLRELAG; UniProt O53779 54-65, looked up, fragment)
effect on cell growth (OD600) compared with control cells [1]: only a slight effect
Helicity (α-helical propensity) [2]: 20.8%
cell penetration / uptake, fluorescence signal inside the cells [3]: barely observed
